In US20190218268A1 (INDIANA UNIVERSITY RESEARCH AND TECHNOLOGY, published 2019):
Square brackets hold non-standard residues; d marks the D form. Ends that are not written are not given here. 3Pal = N[C@@H](Cc1cccnc1)C(=O)O; 4Pal = N[C@@H](Cc1ccncc1)C(=O)O; Aib = CC(C)(N)C(=O)O

Key:
Assay in all cases: cell-based or functional assay
[1] = biological target: glucagon receptor (co-transfected in HEK293 cells with a CRE-luciferase reporter)
human glucagon receptor = human glucagon receptor (human, UniProt P47871 26-477)
human GLP-1 receptor = human GLP-1 receptor (human, UniProt P43220 24-463)

Chain of human glucagon receptor (P47871 26-477): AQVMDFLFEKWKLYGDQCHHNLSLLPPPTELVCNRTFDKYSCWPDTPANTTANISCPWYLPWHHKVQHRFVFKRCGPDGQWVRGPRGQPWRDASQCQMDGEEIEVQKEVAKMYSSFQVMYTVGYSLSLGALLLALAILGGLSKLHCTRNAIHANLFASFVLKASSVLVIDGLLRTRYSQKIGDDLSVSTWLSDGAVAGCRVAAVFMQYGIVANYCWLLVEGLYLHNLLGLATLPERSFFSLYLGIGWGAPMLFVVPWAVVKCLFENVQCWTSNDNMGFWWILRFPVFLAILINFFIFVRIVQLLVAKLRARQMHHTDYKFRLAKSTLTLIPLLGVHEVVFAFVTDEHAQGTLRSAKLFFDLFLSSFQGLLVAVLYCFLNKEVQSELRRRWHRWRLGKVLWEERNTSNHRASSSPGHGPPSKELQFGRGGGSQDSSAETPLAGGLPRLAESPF

| Binder | % bioactivity of GCG [1] | EC50 [nM] (SDV), luciferase-based glucagon receptor cAMP reporter assay [1] | hGcgR EC50 (pM) (human glucagon receptor) | hGLP-1R EC50 (pM) (human GLP-1 receptor) |
| --- | --- | --- | --- | --- |
| HSQGTFTSDYSKYLD[Aib]RRA[dQ]DFVQWLMDE [Glucagon analog Aib16, q20, D28, E29 (SEQ ID NO: 981)] | – | – | 18 pM | > 10000 pM |
| HSQGTFTSDYSKYLD[Aib]RRA[dQ]DFVQWLMDT [Glucagon analog Aib16, q20, D28 (SEQ ID NO: 980)] | – | – | 33 pM | 7480 pM |
| HSQGT[4Pal]TSD[4Pal]SK[4Pal]LD[Aib]RRAQDFVQWLMNT [Glucagon analog 10] | 24% | 0.0843 nM | – | – |
| HSQGTFTSD[3Pal]SKYLD[Aib]RRAQDFVQWLMNT [Glucagon analog 4] | 76% | 0.0268 nM | – | – |
| HSQGT[3Pal]TSD[3Pal]SK[3Pal]LD[Aib]RRAQD[3Pal]VQWLMNT [Glucagon analog 11] | 1% | 2.33 nM | – | – |
| HSQGT[3Pal]TSD[3Pal]SK[3Pal]LD[Aib]RRAQDFVQWLMNT [Glucagon analog 9] | 28% | 0.0714 nM | – | – |
| HSQGTFTSD[3Pal]SK[3Pal]LD[Aib]RRAQDFVQWLMNT [Glucagon analog 7] | 57% | 0.0359 nM | – | – |

Second part, the binder after the results:

| % bioactivity of GCG [1] | EC50 [nM] (SDV), luciferase-based glucagon receptor cAMP reporter assay [1] | hGcgR EC50 (pM) (human glucagon receptor) | hGLP-1R EC50 (pM) (human GLP-1 receptor) | Binder |
| --- | --- | --- | --- | --- |
| 60% | 0.0339 nM | – | – | HSQGTFTSDYSK[4Pal]LD[Aib]RRAQDFVQWLMNT [Glucagon analog 6] |
| 66% | 0.0309 nM | – | – | HSQGTFTSD[4Pal]SK[4Pal]LD[Aib]RRAQDFVQWLMNT [Glucagon analog 8] |
| – | – | 86 pM | > 10000 pM | HSQGTFTSDXSKYLDXRRAXDFVQWLMNT (3-Pal at position 10; Aib at position 16; dGln at position 20) [Glucagon analog 3-Pal10, Aib16, q20 (SEQ ID NO: 971)] |
| 54% | 0.0379 nM | – | – | HSQGTFTSDYSK[3Pal]LD[Aib]RRAQDFVQWLMNT [Glucagon analog 5] |
